The target of assay [1] is T1, extracellular domain of human AXL protein (AXL-ECD) (human, UniProt P30530 31-449).
T1 construct: expressed in HEK293T cells; coated on the ELISA plate; also called AXL-ECD protein; human AXL extracellular domain protein
T1 sequence: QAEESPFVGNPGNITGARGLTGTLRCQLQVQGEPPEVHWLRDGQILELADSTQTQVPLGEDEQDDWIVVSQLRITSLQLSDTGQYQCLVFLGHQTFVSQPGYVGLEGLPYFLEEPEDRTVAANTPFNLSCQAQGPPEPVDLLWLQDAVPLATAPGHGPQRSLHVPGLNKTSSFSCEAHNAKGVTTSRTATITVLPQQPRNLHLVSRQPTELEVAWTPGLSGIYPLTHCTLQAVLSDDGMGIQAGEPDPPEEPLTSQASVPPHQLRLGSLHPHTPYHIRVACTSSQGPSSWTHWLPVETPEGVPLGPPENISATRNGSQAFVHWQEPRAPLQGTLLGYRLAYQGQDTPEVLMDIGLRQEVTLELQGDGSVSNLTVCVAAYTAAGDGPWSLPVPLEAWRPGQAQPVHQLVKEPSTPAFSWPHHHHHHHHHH
In words: ELISA, AXL-ECD. On the technique in general: In an ELISA, binding on a coated surface is turned into a signal by an enzyme label.

The target of assay [2] is T2, human AXL on the surface of tumor cells (human, UniProt P30530 26-894).
T2 construct: whole, on cells; endogenous protein of human tumor cell lines; the cell line is named under assay or readout; also called AXL on the cell surface
T2 sequence (looked up): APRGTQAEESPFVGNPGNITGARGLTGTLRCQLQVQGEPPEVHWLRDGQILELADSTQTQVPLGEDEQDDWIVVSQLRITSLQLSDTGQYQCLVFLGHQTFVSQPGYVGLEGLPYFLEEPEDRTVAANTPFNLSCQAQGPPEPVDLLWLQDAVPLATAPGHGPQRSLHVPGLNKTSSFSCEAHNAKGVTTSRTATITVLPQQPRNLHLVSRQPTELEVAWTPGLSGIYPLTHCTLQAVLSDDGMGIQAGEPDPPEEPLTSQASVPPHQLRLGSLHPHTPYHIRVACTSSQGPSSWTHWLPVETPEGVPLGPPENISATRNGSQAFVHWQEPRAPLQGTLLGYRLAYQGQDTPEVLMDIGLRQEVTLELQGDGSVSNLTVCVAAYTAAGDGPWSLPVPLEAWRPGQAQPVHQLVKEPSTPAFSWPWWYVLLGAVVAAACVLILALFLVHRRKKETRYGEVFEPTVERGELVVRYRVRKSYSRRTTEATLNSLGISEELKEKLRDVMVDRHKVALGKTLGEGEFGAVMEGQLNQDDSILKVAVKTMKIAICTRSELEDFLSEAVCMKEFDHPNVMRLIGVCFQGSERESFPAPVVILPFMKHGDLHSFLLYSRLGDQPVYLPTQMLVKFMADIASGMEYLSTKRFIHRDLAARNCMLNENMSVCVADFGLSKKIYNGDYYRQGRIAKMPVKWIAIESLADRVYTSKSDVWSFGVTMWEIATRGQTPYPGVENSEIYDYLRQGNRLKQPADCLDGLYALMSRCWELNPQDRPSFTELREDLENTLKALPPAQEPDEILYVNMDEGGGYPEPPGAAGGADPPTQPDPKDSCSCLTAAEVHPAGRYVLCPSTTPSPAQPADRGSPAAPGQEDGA
In words: FACS on MDA-MB-231 cells, mean EC50. As for the experimental part: (§1) Then the obtained solutions were incubated at 4° C. for 1 h, the cells were washed twice with PBS to remove unbound primary antibody, and then the target cells were incubated with 200 μL PE-labeled secondary antibody (2 μg/mL) at 4° C. for 30 min. The cells were washed twice with PBS to remove unbound secondary antibody. Finally, the cells were resuspended in 200 μL PBS, and the binding affinity of the test antibody to AXL on the cell surface was determined by a flow cytometer (FACSCalibur)

The target of assay [3] is T1, extracellular domain of human AXL …. In words: ELISA, plate-coated AXL-ECD. As for the experimental part: (§2) The extracellular domain of AXL protein (AXL-ECD) was diluted to […] with the coating solution, and coated onto ELISA plate with 100 μL/well at 4° C. overnight. The excess antigen was washed off. The plate was blocked with 1% BSA at room temperature for 2 h, then each monoclonal antibody in a 3-fold dilution was added at 100 µL/well. The plate was incubated at room temperature for 1 h; the unbound antibody was washed off, and appropriate concentration of anti-mouse secondary antibody labeled with horseradish peroxidase was added at 100 µL/well. The plate was incubated at room temperature for 0.5 h. The unbound secondary antibody was washed off. TMB Substrate was added and reacted for about 15 minutes. 1N HCL was added at 50 µL/well to stop the color reaction. Then the absorbance was measured at 450 nm and the obtained data was analyzed.

The target of assay [4] is T2, human AXL on the surface of tumor cells. The assay is described as follows: FACS on MDA-MB-231 cells. As for the experimental part: as §1
The target is the same in assay [5]. In words: FACS on NCI-H1299 cells. As for the experimental part:
as §1
AXL-high-expression lung cancer cells NCI-H1299 were used as target cells. 100 μL of the test antibody diluted in a 3-fold gradient was used as primary antibody, and mixed with 1×10⁵ NCI-H1299 cells suspended in 100 μL RPMI-1640 serum-free medium. The operation method was the same as above. Finally, the cells were resuspended in 200 μL PBS, and the binding affinity of the tested antibody to AXL on the cell surface was determined by a flow cytometer (FACSAria II).

Assay [6] shares this target. In words: FACS on LCLC-103H cells. The method, then:
as §1
The experimental method was referred to Example 8.

Assay [7] concerns the target T1, extracellular domain of human AXL …. The assay is described as follows: ELISA, plate-coated AXL-ECD. The method, then: as §2
24 humanized antibodies in Table-6 were diluted by gradient, and their affinity to AXL-ECD protein was determined by ELISA. The experimental method was referred to Example 4.
The source holds these as a separate data set.

Assay [8] has as its target T2, human AXL on the surface of tumor cells. In words: FACS on MDA-MB-231 cells. The method, then: as §1
24 humanized antibodies in Table-6 were diluted by gradient, and their affinities to AXL, on the surface of MDA-MB-231 cells were determined by flow cytometer. The experimental method was referred to Example 8.
This is another data set of the same source.

Assay [9] concerns the target T3, cynomolgus monkey AXL on the surface of HEK-293T cells (cynomolgus monkey).
T3 construct: transiently expressed in HEK293T cells from pcDNA3.1
In words: FACS on HEK293T cells transiently expressing monkey AXL. As for the experimental part:
3. HEK293T cells were spread to a 50% density in a culture dish, and cultured overnight at 37° C. to a confluence of about 80%. […] of monkey/mouse-AXL vector plasmid prepared above was transiently transfected into the cells with Liposome Lipo2000 (Invitrogen). 24 hours after transfection, the proteins were collected for Western blot analysis, and the cells were collected for FACS to detect the binding activity of Hu002-2 and monkey/mouse AXL on HEK293T cell surface. The FACS detection test method may be referred to Example 18.

Changes are numbered by the printed parent chain. Where two headings read alike, the source gives them in different places.

B1: mAb005 (antibody, V domains shown)
VH: QVQLQQSGPELVKPGASVKISCKASGYSFTSYYIHWVQQRPGQGLEWIGWIYPGSDNTKYNEKFKDKATLTADTSSGTAYMQLSSLTSDDSAVFYCARNYYDYDGGTWFPYWGQGTLVTVSA
VL: DIQMTQTTSSLSASLGDRVTISCRASQDINYYLNWYQQKPDGTVKLLIYYTSRLHSRVPSRFSGSGSGTDYSLTISNLEQEDIATYFCQQGNTLPWTFGGGTKLEIK
notes: murine hybridoma antibody, IgG1/k; also called original murine antibody mAb005
In the case of B1, the 50% effective concentration (EC50) in assay [1] was determined as 0.092 nM.

B2: mAb005c (antibody, V domains shown)
VH: B1 VH
VL: B1 VL
notes: also called human-mouse chimeric antibody mAb005c
In turn, B2 showed an EC50 in assay [2] of 0.4 nM. Besides, in assay [3], the concentration for a half-maximal effect (EC50) is 0.103 nM and the “Highest reading (OD450 nm)” value was found to be 3.78 OD450 nm. The “Highest MFI value (FACSCalibur)” value in assay [4] is 208 MFI. Also, in assay [5], the concentration giving a half-maximal response (EC50) stood at 0.908 nM and the “Highest MFI value (FACSAria II)” value came to 2140 MFI.

B3: mAb002 (antibody, V domains shown)
VH: QIQLQQSGPELVKPGASVKISCKASGYPFTDFYINWVKQKPGQGLEWIGWIYPGSGNTKYNEKFKGKATLTVDTSSSTAYMQLSSLTSEDTAVYFCARSTGFFDYWGQGTTLTVSS
VL: QIVLTQSPALMSASPGEKVTMTCSASSSIGYMYWYQQKPRSSPKSWIYLTSNLASGVPARFSGSGSGTSYSLTISSMEAEDAATYYCQQWSSNPPTFGAGTKLELK
notes: murine hybridoma antibody, IgG1/k; also called original murine antibody mAb002
In assay [1], B3 registered an EC50 of 0.063 nM.

B4: mAb001 (antibody, V domains shown)
VH: AVQLQESGPSLVKPSQTLSLTCSVTGDSITSGYWSWIRKFPGNKLESMGYMTYSGATYYNPSLKSRISITRDTSKNQYYLQLNSVTPEDTATYYCARGGNSYFFDYWGQGTTLTVSS
VL: DIQMTQSPASLSVSVGETVTITCRASENIYSNLAWYQLKQGKSPHLLVYAATNLADGVPSRFSGSGSGTQYSLKIISLQSEDFGTYYCQHFWGTPLTFGAGTKLELK
notes: murine hybridoma antibody, IgG1/k; also called original murine antibody mAb001
In assay [1], B4 displayed a concentration giving a half-maximal response (EC50) of 0.073 nM.

B5: mAb001c (antibody, V domains shown)
VH: B4 VH
VL: B4 VL
notes: also called human-mouse chimeric antibody mAb001c
Regarding B5, the figures for the EC50 in assay [2], in assay [3] and in [5] were 0.84 nM, 0.092 nM and 1.49 nM, respectively. Besides, in [3], the “Highest reading (OD450 nm)” value turned out to be 3.8 OD450 nm. Further, in assay [4], the “Highest MFI value (FACSCalibur)” value worked out at 217 MFI. The “Highest MFI value (FACSAria II)” value in assay [5] is 2370 MFI.

B6: AXL107 (antibody, V domains shown)
VH: EVQLLESGGGLVQPGGSLRLSCAASGFTFSSYAMNWVRQAPGKGLEWVSTTSGSGASTYYADSVKGRFTISRDNSKNTLYLQMNSLRAEDTAVYYCAKIWIAFDIWGQGTMVTV
VL: not shown
notes: also called control antibody AXL107; AXL07
Consider B6, for which the EC50 in assay [2] was determined as 0.433 nM; in assay [6], 0.8 nM; in assay [3] it was 0.075 nM; in assay [5], 0.655 nM. In assay [3], the “Highest reading (OD450 nm)” value amounted to 3.77 OD450 nm. Besides, the “Highest MFI value (FACSCalibur)” value in assay [4] is 218 MFI. Moreover, the “Highest MFI value (FACSAria II)” value in assay [5] came out at 2010 MFI.

B7: Hu002-2 (antibody, V domains shown)
VH: QVQLVQSGAEVKKPGASVKVSCKASGYPFTDFYINWVRQAPGQGLEWMGWIYPGSGNTKYNEKFKGRVTLTVDTSISTAYMELSRLRSDDTAVYYCARSTGFFDYWGQGTLVTVSS
VL: EIVLTQSPATLSLSPGERATLSCSASSSIGYMYWYQQKPGQAPRLLIYLTSNLASGIPARFSGSGSGTDFTLTISSLEPEDFAVYYCQQWSSNPPTFGQGTKLEIK
notes: humanized from mAb002c; also called Hu002c-2
For B7, the half-maximal effective concentration (EC50) in [7] was determined as 0.055 nM; in [6], 0.37 nM; in [8], 0.112 nM; in assay [9], 0.135 nM. The “TOP (OD450)” value in assay [7] was found to be 3.6 OD450. In addition, in assay [8], the “Highest MFI value (FACSCalibur)” value stood at 278 MFI.

B8: Hu002-4 (antibody, V domains shown)
VH: B7 VH with L70M, V72R
VL: B7 VL with F70Y
notes: humanized from mAb002c; also called Hu002c-4
As to B8, the EC50 was 0.055 nM in assay [7], 0.49 nM in [6] and 0.09 nM in [8]. The “TOP (OD450)” value in assay [7] turned out to be 3.6 OD450. Moreover, the “Highest MFI value (FACSCalibur)” value in assay [8] was 277 MFI.

In general, EC50 refers to the concentration that produces a half-maximal response.

The record behind these values is patent publication US20210214447A1 (SHANGHAI INSTITUTE OF MATERIA MEDICA CHINESE ACADEMY OF …, published 2021).
